{
  "source": "patent US20210238276A1",
  "about": "(INTEGRAL MOLECULAR, published 2021)",
  "binders": {"B1": {"name": "AB102 (Fc fusion)", "scFv": "ALTQPSSVSANLGGTVKITCSGGGSYGYGWYQQKSPGSAPVTVIYSNDQRPSDIPSRFSGSKSGSTATLTITGVRAEDEAIYYCGSTDSDYVGIFGAGTTLTVLGQSSRSSGGGGSSGGGGSAVTLDESGGGLQTPGGTLSLVCKASGFDFSSYATIWVRQAPGKGLEWVAGISGTGTGSSTGYAPAVKGRATISRDNGQSTVRLQLNNLRAEDTGSYFCAKSTGYGDSWIYPDSIDAWGHGTEVIVSS", "notes": "also called MAb AB102; not shown: Fc fragment of human IgG1, cloned in frame with the scFv"}},
  "assay_in_all_cases": "flow cytometry, alanine-scan library in HEK-293T, with cytochalasin B",
  "key": {"hsGLUT4 R265A": {"target": "T1, hsGLUT4 R265A (human, UniProt P14672 1-509)", "T1 sequence": "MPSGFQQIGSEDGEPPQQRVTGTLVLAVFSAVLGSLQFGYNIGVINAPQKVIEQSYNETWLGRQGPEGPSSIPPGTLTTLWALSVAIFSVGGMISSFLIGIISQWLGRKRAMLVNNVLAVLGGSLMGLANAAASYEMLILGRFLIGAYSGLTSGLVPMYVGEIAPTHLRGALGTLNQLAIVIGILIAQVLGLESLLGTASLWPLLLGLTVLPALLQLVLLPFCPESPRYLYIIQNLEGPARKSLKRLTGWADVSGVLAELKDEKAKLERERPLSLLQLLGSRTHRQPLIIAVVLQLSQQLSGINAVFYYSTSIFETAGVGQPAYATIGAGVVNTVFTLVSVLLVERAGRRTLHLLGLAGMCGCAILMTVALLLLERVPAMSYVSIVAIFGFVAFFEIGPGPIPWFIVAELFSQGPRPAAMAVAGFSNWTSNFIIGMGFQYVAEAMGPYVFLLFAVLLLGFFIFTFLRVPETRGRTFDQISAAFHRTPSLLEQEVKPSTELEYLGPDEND", "method_in_brief": "(§1)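 HEK-293T cells expressing individual GLUT4 alanine mutants were stained 48 h post-transfection with anti-GLUT4 scFv MAbs (2 μg/ml), then biotinylated secondary and streptavidin-PerCP, and read by high-throughput flow cytometry. Where used, cytochalasin B (10 uM final) was given for 30 min before and during primary antibody staining.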"}, "hsGLUT4 Q295A": {"target": "T2, hsGLUT4 Q295A (human, UniProt P14672 1-509)", "T2 sequence": "T1 sequence with A265R, Q295A", "method_in_brief": "as §1"}, "hsGLUT4 N304A": {"target": "T3, hsGLUT4 N304A (human, UniProt P14672 1-509)", "T3 sequence": "T1 sequence with A265R, N304A", "method_in_brief": "as §1"}, "hsGLUT4 Y502A": {"target": "T4, hsGLUT4 Y502A (human, UniProt P14672 1-509)", "T4 sequence": "T1 sequence with A265R, Y502A", "method_in_brief": "as §1"}},
  "note": "Positions count from the first letter of the chain named.",
  "data": [
    {"binder": "B1", "values": [
      {"measurement": "% of binding to wild type GLUT4", "setting": "hsGLUT4 R265A", "result": -5, "unit": "%"},
      {"measurement": "% of binding to wild type GLUT4", "setting": "hsGLUT4 Q295A", "result": 89, "unit": "%"},
      {"measurement": "% of binding to wild type GLUT4", "setting": "hsGLUT4 N304A", "result": 112, "unit": "%"},
      {"measurement": "% of binding to wild type GLUT4", "setting": "hsGLUT4 Y502A", "result": 94, "unit": "%"}
    ]}
  ]
}
